The target in test [1] is T1, CLR-Nluc in complex with FLAG-RAMP1 (CGRP receptor) (UniProt Q16602 23-461; O60894 27-148).
T1 construct: calcitonin-like receptor (CLR), direct C-terminal in-frame fusion to NanoLuc, in pcDNA3.1(-); receptor activity modifying protein 1 (RAMP1), pcDNA3.1(+)FLAG-RAMP, described in Weston et al., 2016 and Harris et al., 2021; Harris et al., 2021; also called CLR-RAMP1; calcitonin-like receptor with receptor activity modifying protein 1; source: HEK293T, transfected, in living cells; not shown: …

In test [2] the target is T2, CLR-Nluc in complex with FLAG-RAMP2 (adrenomedullin 1 receptor) (UniProt Q16602 23-461; O60895 43-175).
T2 construct: calcitonin-like receptor (CLR), direct C-terminal in-frame fusion to NanoLuc, in pcDNA3.1(-); receptor activity modifying protein 2 (RAMP2), pcDNA3.1(+)FLAG-RAMP, described in Weston et al., 2016 and Harris et al., 2021; Harris et al., 2021; also called CLR-RAMP2; AM1R; source: HEK293T, transfected, in living cells; not shown: NanoLuc, C-terminal, kept; FLAG, N-terminal, kept
Put plainly: FRET or BRET; living HEK293T cells transfected with CLR-Nluc (donor), FLAG-RAMP1/2/3 and β-arrestin1/2-YFP (acceptor); 5 μM coelenterazine-h; stimulated with AM, 1 μM to 10 pM; BRET ratio 460/530 nm read for at least 20 min. The following applies: partners not purified. A general note: BRET reads energy transfer from a luciferase to a nearby fluorophore.

The record followed here is publication PMC9001978, “Determining the Effects of Differential Expression of GRKs and β-arrestins on CLR-RAMP Agonist Bias” (Frontiers in Physiology, 2022).

T1 sequence (Q16602 23-461, chain 1 of 2): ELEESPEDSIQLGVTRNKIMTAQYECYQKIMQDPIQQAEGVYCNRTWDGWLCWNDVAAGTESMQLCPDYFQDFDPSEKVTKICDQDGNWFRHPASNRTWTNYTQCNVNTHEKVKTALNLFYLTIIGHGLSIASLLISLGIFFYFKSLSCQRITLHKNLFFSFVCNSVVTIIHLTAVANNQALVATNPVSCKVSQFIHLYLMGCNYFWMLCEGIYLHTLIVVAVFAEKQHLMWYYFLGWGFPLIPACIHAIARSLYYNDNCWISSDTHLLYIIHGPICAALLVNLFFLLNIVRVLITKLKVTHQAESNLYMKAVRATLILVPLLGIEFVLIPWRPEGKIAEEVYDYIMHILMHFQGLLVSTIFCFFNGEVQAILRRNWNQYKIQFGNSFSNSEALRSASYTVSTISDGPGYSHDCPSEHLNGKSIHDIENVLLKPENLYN
T1 sequence (O60894 27-148, chain 2 of 2): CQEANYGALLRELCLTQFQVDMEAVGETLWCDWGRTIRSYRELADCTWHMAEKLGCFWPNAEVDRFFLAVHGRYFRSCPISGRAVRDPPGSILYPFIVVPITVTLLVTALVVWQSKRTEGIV
T2 sequence (Q16602 23-461, chain 1 of 2): as the sequence (Q16602 23-461, chain 1 of 2) above
T2 sequence (O60895 43-175, chain 2 of 2): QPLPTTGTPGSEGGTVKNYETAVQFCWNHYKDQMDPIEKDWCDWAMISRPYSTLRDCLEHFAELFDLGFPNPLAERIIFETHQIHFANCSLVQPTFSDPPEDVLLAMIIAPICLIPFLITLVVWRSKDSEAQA

As for “adrenomedullin 2 (from UniProt Q7Z4H4 101-148) (peptide)”, in test [1], the cAMP accumulation, Emax, cells pretreated with DMSO (vehicle) (% of the response to 100 μM forskolin) came to 79.8; the cAMP accumulation, Emax, cells pretreated with barbadin (% of the response to 100 μM forskolin) amounted to 47.2; the cAMP accumulation, pEC50, cells pretreated with DMSO (vehicle) is 6.34; the cAMP accumulation, pEC50, cells pretreated with barbadin is 4.93.

B1: β-arrestin1-YFP (natural protein, UniProt P49407 1-418, looked up)
chain: MGDKGTRVFKKASPNGKLTVYLGKRDFVDHIDLVDPVDGVVLVDPEYLKERRVYVTLTCAFRYGREDLDVLGLTFRKDLFVANVQSFPPAPEDKKPLTRLQERLIKKLGEHAYPFTFEIPPNLPCSVTLQPGPEDTGKACGVDYEVKAFCAENLEEKIHKRNSVRLVIRKVQYAPERPGPQPTAETTRQFLMSDKPLHLEASLDKEIYYHGEPISVNVHVTNNTNKTVKKIKISVRQYADICLFNTAQYKCPVAMEEADDTVAPSSTFCKVYTLTPFLANNREKRGLALDGKLKHEDTNLASSTLLREGANREILGIIVSYKVKVKLVVSRGGLLGDLASSDVAVELPFTLMHPKPKEEPPHREVPENETPVDTNLIELDTNDDDIVFEDFARQRLKGMKDDKEEEEDGTGSPQLNNR
notes: β-arrestin1 with an in-frame C-terminal YFP (Mackie et al., 2019); source: HEK293T, transfected, in living cells; not shown: YFP, C-terminal, kept
B1: the “pEC50 of AM for recruitment (BRET)” value in test [2] was 7.57 ± 0.17.
